Data: paper PMC5078793, “ADAMTS-10 and -6 differentially regulate cell-cell junctions and focal adhesions” (Scientific Reports, 2016)

B1: syndecan-4 ectodomain (domain or fragment, human (cloned from ARPE-19A RNA), UniProt P31431 19-143, looked up)
chain: ESIRETEVIDPQDLLEGRYFSGALPDDEDVVGPGQESDDFELSGSGDLDDLEDSMIGPEVVHPLVPLDNHIPERAGSGSQVPTEPKKLEENEVIPKRISPVEESEDVSNKVSMSSTVQGSNIFER
modifications: the recombinant protein is modified with heparin chains
notes: syndecan-4 ectodomain cloned from RNA of ARPE-19A cells, residues 19-143 (ESI....IFE); Carries heparan sulphate chains in the SPR; also called Syn4 EC; syndecan-4 extracellular domain; source: 293-EBNA cells (pCEP-pu/AC7), purified (IMAC, size-exclusion chromatography)
B2: fibrillin-1 Ex6–11 fragment (domain or fragment)
chain: not shown
notes: human fibrillin-1, domains encoded by exons 6-11; source: 293-EBNA cells (pCEP-pu/AC7), purified (IMAC, size-exclusion chromatography)

What was measured:
[1] = target: T1, ADAMTS10 C-terminal region (human, UniProt Q9H324 547-1103); test: SPR; Biacore; syndecan-4 ectodomain immobilised, ADAMTS C-terminal regions injected; 10 mM HEPES pH 7.4, 0.1 M NaCl, 0.5 mM CaCl2, 0.005% P20; settings: both partners purified
T1 construct: human ADAMTS10 variant 1, C-terminal region starting at the 1st TSR domain, residues 547-1103; also called C-terminal ADAMTS10; source: 293-EBNA cells (pCEP-pu/AC7), purified (IMAC, 0.5 M NaCl)
T1 sequence (looked up): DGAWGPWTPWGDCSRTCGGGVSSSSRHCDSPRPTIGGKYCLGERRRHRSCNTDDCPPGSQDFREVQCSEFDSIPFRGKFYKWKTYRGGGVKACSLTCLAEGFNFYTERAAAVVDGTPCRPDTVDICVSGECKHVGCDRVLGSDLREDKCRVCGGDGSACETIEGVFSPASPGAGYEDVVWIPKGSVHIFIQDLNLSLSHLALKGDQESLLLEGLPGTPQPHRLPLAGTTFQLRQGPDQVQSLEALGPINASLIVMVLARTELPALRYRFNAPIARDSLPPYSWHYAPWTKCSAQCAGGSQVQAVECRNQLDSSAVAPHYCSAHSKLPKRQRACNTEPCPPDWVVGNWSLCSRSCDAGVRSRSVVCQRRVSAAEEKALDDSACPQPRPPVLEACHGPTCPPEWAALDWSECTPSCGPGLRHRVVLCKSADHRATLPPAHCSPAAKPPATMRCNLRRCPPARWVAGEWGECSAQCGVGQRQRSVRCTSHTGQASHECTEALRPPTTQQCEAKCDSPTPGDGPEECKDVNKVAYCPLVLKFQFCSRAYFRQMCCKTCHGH

[2] = target: T2, ADAMTS6 C-terminal region (human, UniProt Q9UKP5-1 558-1117); test: as above; settings: both partners purified
T2 construct: human ADAMTS6 variant 1, C-terminal region starting at the 1st TSR domain, residues 558-1117; The text calls it monomeric; also called C-terminal ADAMTS6; C-terminal fragment of ADAMTS6; source: 293-EBNA cells (pCEP-pu/AC7), purified (IMAC, 0.5 M NaCl)
T2 sequence (looked up): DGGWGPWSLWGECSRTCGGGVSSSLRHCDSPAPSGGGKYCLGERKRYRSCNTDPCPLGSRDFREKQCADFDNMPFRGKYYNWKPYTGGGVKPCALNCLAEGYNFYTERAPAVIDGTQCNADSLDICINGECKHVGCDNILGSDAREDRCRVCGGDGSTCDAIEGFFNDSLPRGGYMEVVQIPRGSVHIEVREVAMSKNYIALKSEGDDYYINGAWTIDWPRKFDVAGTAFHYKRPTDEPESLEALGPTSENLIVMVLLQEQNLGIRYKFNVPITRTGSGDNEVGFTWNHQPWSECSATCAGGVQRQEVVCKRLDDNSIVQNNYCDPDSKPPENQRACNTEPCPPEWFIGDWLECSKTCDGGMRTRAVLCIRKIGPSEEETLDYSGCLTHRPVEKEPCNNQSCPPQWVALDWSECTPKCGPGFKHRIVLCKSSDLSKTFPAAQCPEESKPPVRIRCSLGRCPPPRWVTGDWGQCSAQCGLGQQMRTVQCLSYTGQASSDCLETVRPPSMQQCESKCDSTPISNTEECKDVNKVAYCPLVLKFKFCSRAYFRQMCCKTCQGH

[3] = target: the molecule itself; test: SDS-PAGE and western blot (SDS-resistant dimer); purified syndecan-4 ectodomain treated with heparinases I, II, III; anti-syndecan-4 blot; with or without ADAMTS6 overnight at 37 °C
[4] = target: T2, ADAMTS6 C-terminal region; test: SPR; Biacore; ADAMTS protein (full-length or C-terminal region) immobilised by amine coupling on CM5 (~3000 RU); analyte injected at 30 ul/min; 10 mM HEPES pH 7.4, 0.1 M NaCl, 0.5 mM CaCl2, 0.005% P20; 1:1 kinetics or equilibrium analysis; settings: both partners purified

Binder	Kd [1]	Kd [2]	binding result [3]	Kd [4]
B1	14 ± 1.1 nM	12.9 ± 4 nM	binds	
B2				2.4 ± 1.2 nM
